The values below are quoted from earlier work in publication PMC8444577.

The target in this data set is IL-18 (Homo sapiens) (UniProt Q14116).
Chain of IL-18 (Homo sapiens) (Q14116 37-193): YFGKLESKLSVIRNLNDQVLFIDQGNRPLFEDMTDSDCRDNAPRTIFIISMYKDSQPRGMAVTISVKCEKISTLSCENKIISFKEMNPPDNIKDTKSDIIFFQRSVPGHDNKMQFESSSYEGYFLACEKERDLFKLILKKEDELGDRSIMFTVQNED

Chain of IL-18BP (O95998 31-194): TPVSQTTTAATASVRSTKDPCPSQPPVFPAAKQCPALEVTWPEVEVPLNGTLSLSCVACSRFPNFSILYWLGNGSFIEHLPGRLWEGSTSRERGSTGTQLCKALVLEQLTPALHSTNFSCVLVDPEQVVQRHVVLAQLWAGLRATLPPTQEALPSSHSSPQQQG

Usually Kd stands for the constant that tells how readily two partners part at equilibrium. As for IL-18BP (from UniProt O95998), the dissociation constant Kd is 400 pM.
